In paper PMC3230775 (Nature structural & molecular biology, 2011) one finds stoichiometry N and Kd data, which are given here for two molecules.

Broadly, the stoichiometry N is a count of units in the complex or per binding partner. What is called Kd is a measure of binding affinity in units of concentration.

Assay [1] addresses p130Cas C-terminal domain (residues 645-870) (human) (UniProt P56945). Kind of assay: crystal structure.
The target in assay [2] is T1, BCAR3 C-terminal domain (residues 502-825) (human, UniProt O75815 502-825).
T1 sequence: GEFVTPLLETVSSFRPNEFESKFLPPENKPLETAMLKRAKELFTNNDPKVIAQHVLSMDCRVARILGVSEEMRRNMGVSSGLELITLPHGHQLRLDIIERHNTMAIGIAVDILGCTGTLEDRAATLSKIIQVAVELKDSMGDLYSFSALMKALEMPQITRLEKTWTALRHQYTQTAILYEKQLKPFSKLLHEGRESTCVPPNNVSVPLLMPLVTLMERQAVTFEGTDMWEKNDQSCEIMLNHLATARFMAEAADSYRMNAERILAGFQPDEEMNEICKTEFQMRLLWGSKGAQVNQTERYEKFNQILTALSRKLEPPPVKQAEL
Kind of assay: ITC. On the technique in general: Isothermal titration calorimetry measures the heat released or taken up as one component is titrated into another.

On to “NSP3 C-terminal domain (residues 382-703) (domain or fragment)”, for which, in assay [1], the stoichiometry N was 1.

B1: p130Cas C-terminal domain (residues 645-870) (domain or fragment)
chain: SQDSPDGQYENSEGGWMEDYDYVHLQGKEEFEKTQKELLEKGSITRQGKSQLELQQLKQFERLEQEVSRPIDHDLANWTPAQPLAPGRTGGLGPSDRQLLLFYLEQCEANLTTLTNAVDAFFTAVATNQPPKIFVAHSKFVILSAHKLVFIGDTLSRQAKAADVRSQVTHYSNLLCDLLRGIVATTKAAALQYPSPSAAQDMVERVKELGHSTQQFRRVLGQLAAA
Turning to B1, binding in assay [2] was characterised by a dissociation constant (Kd) of 30 nM.
